Reference: PMC4820727

How the values were obtained:
Test in all cases: flow cytometry on cells; Adh adhesion to 293T cells displaying the candidate protein from pDisplay; adhesion rate compared with the control group
[1] = target: OR5M11 displayed on the surface of 293T cells (pDisplay) (pig (protein identified from porcine alveolar macrophages; source of the cDNA not stated))
[2] = target: RAB1B displayed on the surface of 293T cells (pDisplay) (pig (protein identified from porcine alveolar macrophages; source of the cDNA not stated)) (UniProt Q06AU7)
Sequence of UniProt Q06AU7 (Q06AU7 whole entry): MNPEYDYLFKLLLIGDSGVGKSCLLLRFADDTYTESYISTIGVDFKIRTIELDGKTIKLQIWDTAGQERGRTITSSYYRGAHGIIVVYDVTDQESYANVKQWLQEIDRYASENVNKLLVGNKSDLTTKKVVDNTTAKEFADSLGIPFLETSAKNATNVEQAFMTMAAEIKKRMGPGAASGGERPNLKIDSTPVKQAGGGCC

[3] = target: RAB14 displayed on the surface of 293T cells (pDisplay) (pig (protein identified from porcine alveolar macrophages; source of the cDNA not stated)) (UniProt Q52NJ6)
Sequence of UniProt Q52NJ6 (Q52NJ6 whole entry): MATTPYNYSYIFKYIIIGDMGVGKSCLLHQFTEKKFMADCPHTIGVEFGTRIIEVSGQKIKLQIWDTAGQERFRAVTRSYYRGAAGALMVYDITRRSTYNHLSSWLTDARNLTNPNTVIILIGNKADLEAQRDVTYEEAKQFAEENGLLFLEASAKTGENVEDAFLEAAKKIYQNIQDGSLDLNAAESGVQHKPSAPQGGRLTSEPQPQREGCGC

[4] = target: CARD displayed on the surface of 293T cells (pDisplay) (pig (protein identified from porcine alveolar macrophages; source of the cDNA not stated))

Measured: fold increase of the adhesion rate over the control group

Adh, the 68-612 aa head domain of the trimeric autotransporter adhesin Apa1 of Actinobacillus pleuropneumoniae (domain or fragment)
> 3 fold: all assays above
